The record followed here is article PMC3116811 (PLoS Pathogens, 2011).

The target in this assay is T1, chimeric Nb_An05-Fc HCAb (Nb_An05 fused to the hinge and Fc-domain of human IgG1) (camelid).
T1 construct: also called synthetic HCAb; reconstituted HCAb; not shown: Fc (human IgG1, including the hinge), C-terminal, kept
Description: ELISA; format not told; Nb_An05-Fc HCAb on the VSG antigen. The following applies: both partners purified. (ELISA stands for enzyme-linked immunosorbent assay.)

B1: purified soluble AnTat1.1 VSG (variant-specific surface glycoprotein of Trypanosoma brucei AnTat1.1) (natural protein)
chain: QTAGRPLADVVGKTLCTYSKTAKRQAANLAQTLQRASSAAKQSRQAQQLAALALAKLPDYKEAAATLLIYATHKIQDAQASIENWTGENTKLVGQAMYSSGRIDELMLLLEGHREDGANGQDKTCLGAAAGGNTVNEFVKTECDTESGHNIEADNSNIGQAATTLSQESTDPEASGGASCKITANLATDYDSHANELPLLGGLLTIHNAGGFKTGQSLQTAAPTNKLISALKNKGAGVAAKLATVTSAAPTSKQELKTLLASKGERAKLQAANDEYNNWKPGAKPEDFDAHIKKVFGAEDGKDSAYAIALEGISIEAPLGGGQTQNKQLYSMQPKDLMAALIGTIAELQTAAATKPACPGHKQTTTESDALCSKIKDANECNSKHFCSYNGTETDSAKKCKYNATKASASDAPVTQAQTTSRSETPAEKCTGKKKDDCKDGCKWEAETCKD
As to B1, the binding result is reported as “binds”.
